This data set in a line: yeast display, Sf9 membrane polyspecificity reagent, FACS + sequencing; frameworks hold sequencing errors. In outline: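 In a synthetic yeast display library (Saccharomyces cerevisiae BJ5465), nanobody expression was induced with galactose for 36–48 hours. FACS gates were set low and high (top ~1%) using anti-HA fluorescence for expression and streptavidin fluorescence for binding of the Sf9 membrane reagent. Each polyreactivity label is drawn from the gate of origin.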
For the sequence “QVQLVDSGGGLVQAGGSLRLSCAASGIILYPYAMGWYRQAPGKERELVAAISWSGGSTYYADSVKGRFTISRDNAKNTVYLQMNSLKPEDTAVYYCAARPRRRYYGYDSWGQGTQVTVSS”, the “polyreactivity (PSR sort gate)” value is “high polyreactivity”.
In the case of “QVQLVESGGGLVQAGGSLRLSCAASGSIFPQYAMGWYRQAPGKERELVAAITRSGGGTHYADSVKGRFTISRDYAKNTVYFQMNSLKPEDTAVYYCAKAGYRSEFEYWGQGTQVTVSS”, the “polyreactivity (PSR sort gate)” value is “low polyreactivity”.
Regarding “QVQLVESGGGLVQAGGSLRLSCAATGRNFRYNAIGWYRQATGKERELVATISRGGGSTYYADSVKGRFTISRDNAQNTVYLQMNSLKPEDTAVYYCATRYYQDIVGYSRYDYWGQGTQVTVSS”, the “polyreactivity (PSR sort gate)” value is given as “high polyreactivity”.
“QVQLVESGGGLVQAGGSLRLSCAASGGIFYPYAMGGYRQAPGKERELVASIDVSDGSTYYADSVKGRFTISRDNAKNTVYLQMNSLKPEDTAVYYCAADRYYKAIDFEGDYWGQGTQVTVSS”: the “polyreactivity (PSR sort gate)” value is on record as “low polyreactivity”.
Under “QVQLVESGGGLVQAGGSLRLSCAASGRISGYNMGWSRHAPGKERELVAAISNGGSTNYADSVKGRFTISRANAKNTVYLQMNSLKPEDTAVYYCAKLGPRSYSAYRYDYWGQGTQVTVSS” stands “high polyreactivity”; under “QVQLVESGGGLVQAGGSLRLSCAASGNIFRINGMGWYRQAPGKERELVAAISFSGGSTYYADSVKGRFTISRDNAKNTVYLQMNSLKPEDTAVYYCNADSTKGWYHDYDYWGQGTQVTVSS”, “low polyreactivity”.
Under “QVQLVESGGGLVQAGRSLRLSCAASGLTFGQYAMGWYRQAPGIERELVAAMNWSGDGTYYADSVKGRFTISRDNAKNTVYLQMKSLKPEDTAVYYCNAGGRRYYYIGYDYWGQGTQLTVSS” stands “low polyreactivity”; under “QVQLVESGGGLVQAGGSLRLSCAASGFIFGRYAMGWYRQAPGKERELVAAITSGGRTYYADSVKGRFTISRDNAKNTVYLQMNSLKPEDTAVYYCAKRVGRYWTAGYYWGQGTQVTVSS”, “high polyreactivity”; under “QVQLVESGGGLVQAGGSRRLSCAACGFIFEKNAMGWYRQAPGKERELVAAISGGGITNYADSVKGRFTISRDNEKKTVYLHMNSLKPQDTAVYYCAKTRRRLLTRYDYWGQGTQVTVSS”, “low polyreactivity”.
The entry for “QVQLVESGGGLVQAGGSLRLSCAASGFIFIAYVMGWYRQAPGKERELVAAITRSGASTYYADSVKGRFTISRDNAKNTVYLQMNSLKPVDTAVYYCAARGAYSFYGYYYWGQGTQVTVSS” is “high polyreactivity”; for “QVQLVESGGGLVQPGGSLRLSCAASGRTLQRNAMVWYRQAPGKERELVAAISSSGGSTYYADSVKGRFTISRDNAKNTFYLQMNSLKPDDTAVYYCNTDSVYRYHYWGQGTEVTVSS” it is “high polyreactivity”.
Turning to “QVQLVESGGGLVQAGGSLRLSCAASGRIFVYYAMGWYRQAPGKERELVAAITSRDDSTYYADSVKGRFTISRDNAKNTVYLQMNSLKPEDTAVYYCNVVPKSRDWQSYGSWGQGTQVTVSS”, the “polyreactivity (PSR sort gate)” value was “high polyreactivity”.
In the case of “QVQLVESGGGLVQAGGSLRLSCADSGLIFTANDRGWYRQAPGKERELVADISKSGSSTYYADSVKGRFTISRDNAKNTVYLQMNSLKPEDTAVYYCNADYLTYFTTFDYWGQGTQVTVSS”, the “polyreactivity (PSR sort gate)” value is on record as “low polyreactivity”.
As for “QVQLVESGGGLVQAGGSLRLSCAASGYIVTSYTMGWYIQAPGKERELVAAISASDGSTYADSVKGRFTISRDNAKNTVYLQMNSLKPEDTAVYYCNKAAYGGHRTSEQVGWVYLYDYWGQGTQVTVSS”, the “polyreactivity (PSR sort gate)” value is reported as “low polyreactivity”.
The entry for “QVQLVESGGGLVQAGGSLRLSCAASGSTFAPNAMGWYRQAPGKERELVAAIRFDTGSTYYADSVKGRFTISRDNAKNTVYLQMNSLKPEDTAVYYCAAYNHYLSESDYWGQGTQVTVSS” is “low polyreactivity”; for “QVQLVESGGGLVQAGGSLRLSCAASGRIFVHYVMGWYRQAPGKERELVAAITVSGGGTYYADSVKGRFTISRDNAKNTVYFQMNSLTPEDTAVYYCNAVPHPYDWGQGTQLTVSS” it is “low polyreactivity”.
“QVQLVESGGGLVQAGGSLRLSCAASGSTLVTYAMGWYRQAPGKERELVARIDSGGSTNYADSVKGRFTISRDNAKNTVYLQMNSLKPEDTAVYYCSAGGGFYFIWTMDYWGQGTQVTVSS”: the “polyreactivity (PSR sort gate)” value is recorded as “low polyreactivity”.
Under “QVQLVESGGGLVQAGGSLRLSCAASGSTFWWYAMGWYRPAPGKERELVARISNGGGTNYADSGKGRFTISRDNEKNSVFLQMNSLIPEDTAVYYCAATVGVAYYENDYWGQGTQVTVSS” stands “low polyreactivity”; under “QVQLVESGGGLVQAGGSLRLSCAASGGTFETYALGWYIPAPGKEREFVAANSRSGGSTYYADSVKGRFTISRDNAKNTVYLQMNSLKPEDTAVYYCAAEGYDLSSRVYGGYDYWGQGTQVTVSS”, “low polyreactivity”; under “QVQLVESGGGLVQAGGSLRLSCAASGRTFPVNAMGWYRQAPGKERELVASITYSGGSTYYADSVKGRFTISRDNAKNTVYLQMNSLKPEDTAVYYCAADWYRSPYDYWGQGTQVTVSS”, “low polyreactivity”.
Regarding “QVQLVESGGGLVQAGGSLRLSCAASGFSFVYYAMGWYRQAPGKERELVATISGNGGRTYYADSVKGRFTISRDNAKNTVYLQMNSLKPEDTAVYYCAALLYIRSVGYDYWGQGTQVTVSS”, the “polyreactivity (PSR sort gate)” value is recorded as “low polyreactivity”.
Consider “QVQLVESGGGLVQAGGSLRLSCAASGFTFGSNAMGWYRQAPGKEREFVATITKSGGRTYYADSVKGRFTISRDNAKNTVYFQMNSLKPEDTAVYYCAVALSYRTYRKDDYWGQGTQVTVSS”, for which the “polyreactivity (PSR sort gate)” value was “high polyreactivity”.
Turning to “QVQLVESGGGLVQAGGSLRLSCAASGRTFPYNAMGWYRQAPGKERELVAAISYSGGRTYYADSVKGRFTISRDNAKNTVYLQMNSLKPEDTAVYYCNALGSGREDDYWGQGTQVTVSS”, the “polyreactivity (PSR sort gate)” value is “high polyreactivity”.
The entry for “QVQLVESGGGLVQAGGSLRLSCAASGRIFGDYAMGGSRQAPGKERELVAVISVGGRTSYADSVKGRFTISRDNAKNTVYLQMNSLKPEDTAVYYCATRLSTRDGGYWGQGTQVTVSS” is “low polyreactivity”.
Under “QVQLVESGGGLVQAGGSLRLSCAASGRIFYNYAMGWSRQAPGKERELVAAISGSGGSTYYADSVKGRFTISRDNAKNTVYLQMNSLKPEDTAVYYCSTSGPQYYSRNFDYWGQGTQVTVSS” stands “low polyreactivity”; under “QVQLVESGGGLVQAGGSLRLSCAPSGRIFGTNDMGWYRQAPGKERELVADITSGGSTNYADSVKGSFTISRDNAMNTVYLPMNSLKPEDSAVYYCNARHHNKVARFDYWGQGTQVTVSS”, “low polyreactivity”.
For “QVQLVESGGGLVQAGGSLRLICAASGIIFVSNAMGWYRQAPGKERELVATINWSDDSTYYADSVKGRFTISRDNAKYTVYLQMNSLKPEDTAVYYCNARPLRYVESDYWGQGTQVTVSS”, the “polyreactivity (PSR sort gate)” value is on record as “low polyreactivity”.
Under “QVQLVESGGGLVQAGGSLRLSCAASGYIFRNVMGWYRQAPGKERELVATISGSGGSTYYADSVKGRFTISRDNAKNTVYLQMNSLKPEDTAVYDCSKRWYRLGRYGGYDYWGQGTQVTVSS” stands “high polyreactivity”; under “QVQIVESGGGLVQAGGSLRLSCAASGRIFVPYVMGWYRQAPGKERELVASISDSDTSTYYADSVKGRFTISRDNAKNTVYLQMNSLKPEDSAVYYCAAGVLRRATELYYWGQGTQVTVSS”, “low polyreactivity”; under “QVQLVESGGGIVQAGGSLRLSCAASGLTYGKYAMGWNRPAPGKERELVAANSRRGGSTYYADSVKGRFTISRDKAKNNDYLQMNRLKPEDSAVYYFNTDTKHTGLDYWGQGTQVSVSS”, “high polyreactivity”.

Source of the values: the nanobody polyreactivity screen of Harvey et al. (2022).
